Experimental data published in patent US20020141999A1 (IMMUNEX, published 2002).

Columns and labels:
[1] = target: T1, murine K12, full length, on transfected cells (mouse, UniProt Q9JL59 29-212); experiment: Fc fusion binding to transfected cells, detected with 125I anti-human Fc
T1 construct: also called mouse K12; murine homologue of K12
T1 sequence: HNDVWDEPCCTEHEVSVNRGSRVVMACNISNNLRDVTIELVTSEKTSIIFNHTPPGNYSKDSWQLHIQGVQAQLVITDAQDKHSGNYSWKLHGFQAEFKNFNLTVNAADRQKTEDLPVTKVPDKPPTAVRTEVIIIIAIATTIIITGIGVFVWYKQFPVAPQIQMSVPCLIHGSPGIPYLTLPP

[2] = target: T2, human K12, full length, on transfected cells (human, UniProt Q8WVN6 29-248); experiment: as above
T2 construct: also called SECTM1
T2 sequence: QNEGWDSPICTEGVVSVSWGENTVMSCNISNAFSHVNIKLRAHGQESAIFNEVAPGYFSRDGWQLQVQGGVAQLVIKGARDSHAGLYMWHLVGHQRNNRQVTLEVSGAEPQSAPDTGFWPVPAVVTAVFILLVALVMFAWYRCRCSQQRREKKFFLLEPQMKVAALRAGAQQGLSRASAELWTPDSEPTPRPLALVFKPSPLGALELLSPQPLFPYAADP

[3] = target: T3, human CD7, full length, on cells (human, UniProt P09564 26-240); experiment: Fc fusion binding to transfected cells (Example 5)
T3 construct: On transfected COS-1 or CV-1/EBNA cells, and endogenous on Jurkat, KG-1 and NK cells; also called HuCD7
T3 sequence: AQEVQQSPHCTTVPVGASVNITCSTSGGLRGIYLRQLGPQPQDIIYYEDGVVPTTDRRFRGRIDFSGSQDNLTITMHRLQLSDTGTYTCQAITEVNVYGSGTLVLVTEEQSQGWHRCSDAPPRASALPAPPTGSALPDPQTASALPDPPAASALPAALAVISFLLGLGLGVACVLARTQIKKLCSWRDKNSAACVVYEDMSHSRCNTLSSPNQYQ

[4] = target: T3, human CD7, full length, on cells; experiment: preliminary cell binding experiments on Jurkat and KG-1 cells
[5] = target: T4, murine CD7, full length, on cells (mouse, UniProt P50283 24-210); experiment: HuK12-Fc on transfected COS-1 cells, 125I anti-human Fc, phosphorimager
T4 construct: On transfected COS-1 cells; For the proliferation read-out it is endogenous on BALB/c lymph node cells; also called MuCD7; mouse CD7
T4 chain: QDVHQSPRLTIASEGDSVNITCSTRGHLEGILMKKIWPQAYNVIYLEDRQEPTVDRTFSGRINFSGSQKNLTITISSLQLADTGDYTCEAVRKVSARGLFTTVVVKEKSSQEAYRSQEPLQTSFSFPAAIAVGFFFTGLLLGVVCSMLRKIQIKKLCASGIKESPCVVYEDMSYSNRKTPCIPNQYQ
Protocol: COS-1 cells were transfected with an expression vector encoding full length HuCD7 (human CD7), HuCD7-TR (human CD7 containing an internal deletion of the 36 amino acid tandem repeat), MuCD7 and vector only cDNA using DEAE-Dextran. However, any of a large number of expression vectors that are commercially available from numerous companies (e.g., Clontech Inc., Palo Alto, Calif.) could also be used to express the desired cDNAs. Two days post transfection the cells were assayed for the capacity to bind HuK12-Fc as previously described for other Fc fusion proteins (Lyman et al.,1993, Cell 75:1157-1167) with the following modifications. The binding media (RPMI 1640, 1%FBS, 0.02% NaAzide, 20 mM HEPES, pH7.2) was modified to include […] MnCl₂. In some experiments, the transfected cells were incubated with zero, 20 ug/ml or 2 mg/ml of Con A in BM/MM prior to binding with the Fc proteins. Following incubation for 30 minutes at room temperature and the continued presence of Con A, 1 ug/ml of either HuK12-Fc or MuK12-Fc was then added to the appropriate slides. Binding of the Fc protein was detected with [¹²⁵I] mouse anti-Human Fc antibody as previously described (Lyman, 1993). After binding the iodinated antibody, the cells were washed and then the radioactivity was quantitated by Storm Phosphorimager. […]

B1: human CD7-Fc fusion protein (Fc fusion)
chain: AQEVQQSPHCTTVPVGASVNITCSTSGGLRGIYLRQLGPQPQDIIYYEDGVVPTTDRRFRGRIDFSGSQDNLTITMHRLQLSDTGTYTCQAITEVNVYGSGTLVLVTEEQSQGWHRCSDAPPRASALPAPPTGSALPDPQTASALPDPPAASALP
notes: not shown: Fc portion of the CD7-Fc fusion is not described
- binding result [1]: no binding

B2: murine CD7-Fc fusion protein (Fc fusion)
chain: QDVHQSPRLTIASEGDSVNITCSTRGHLEGILMKKIWPQAYNVIYLEDRQEPTVDRTFSGRINFSGSQKNLTITISSLQLADTGDYTCEAVRKVSARGLFTTVVVKEKSSQEAYRSQEPLQTSFSFP
notes: also called mouse CD7-Fc; not shown: Fc portion of the CD7-Fc fusion is not described
- binding result [2]: no binding

B3: mouse K12-Fc fusion protein (extracellular domain of murine K12 fused to the Fc portion of human IgG1) (Fc fusion)
chain: HNDVWDEPCCTEHEVSVNRGSRVVMACNISNNLRDVTIELVTSEKTSIIFNHTPPGNYSKDSWQLHIQGVQAQLVITDAQDKHSGNYSWKLHGFQAEFKNFNLTVNAADRQKTEDLPVTKVPDKPPTAVRTE
notes: Exists as a dimer in solution; also called MuK12-Fc; not shown: Fc portion of human IgG1, as described in U.S. Pat. No. 5,457,035
- binding result [3]: no binding

B4: human K12-Fc fusion protein (extracellular domain of human K12 fused to the Fc portion of human IgG1) (Fc fusion)
chain: QNEGWDSPICTEGVVSVSWGENTVMSCNISNAFSHVNIKLRAHGQESAIFNEVAPGYFSRDGWQLQVQGGVAQLVIKGARDSHAGLYMWHLVGHQRNNRQVTLEVSGAEPQSAPDTG
notes: Exists as a dimer in solution; No linker or junction is described; also called HuK12-Fc; HuK12Fc; not shown: Fc portion of human IgG1, as described in U.S. Pat. No. 5,457,035
- Ka [4]: ~1e+08 M⁻¹
- fold less binding than to full length HuCD7 [5]: ~4 fold
